One substance from patent US20110082421A1 can be followed below.

Experiment [1] has as its target AGE-modified bovine serum albumin (AGE-BSA), prepared by incubating BSA in 1.67 M glucose for two months (bovine) (UniProt P02769). The experiment in a line: FIG. 1D final capacity after cycles of regeneration and ethanol storage (RE), 1 h at 37 C; batch adsorption, competitive ELISA. On the technique in general: ELISA stands for enzyme-linked immunosorbent assay.
For experiment [2] the target is unchanged. The experiment in a line: FIG. 1D initial capacity of the RET series; batch adsorption, competitive ELISA.
The target is the same in experiment [3]. The experiment in a line: FIG. 1D RET series, after 6 processing cycles.
Experiment [4] shares this target. The experiment in a line: FIG. 1C final capacity after 34 days in 20% ethanol at 4 C; batch adsorption, competitive ELISA.
Experiment [5] shares this target. The experiment in a line: FIG. 1D initial capacity of the RE series; batch adsorption, competitive ELISA.
The target is the same in experiment [6]. The experiment in a line: FIG. 1D RE series, after processing cycles.
Experiment [7] shares this target. The experiment in a line: FIG. 1A thermal stability, initial capacity (1 h at 37 C); batch adsorption, competitive ELISA.
Experiment [8] shares this target. The experiment in a line: FIG. 1A thermal stability, final capacity (4 h at 37 C); batch adsorption, competitive ELISA.
Experiment [9] shares this target. The experiment in a line: FIG. 1C initial capacity before storage in 20% ethanol; batch adsorption, competitive ELISA.
Experiment [10] shares this target. The experiment in a line: FIG. 1D final capacity after 6 cycles of regeneration, ethanol storage and 4 h at 37 C (RET); batch adsorption, competitive ELISA.

Chain of AGE-modified bovine serum albumin (AGE-BSA), prepared by incubating BSA in 1.67 M glucose for two months (bovine) (P02769 25-607 limits assumed): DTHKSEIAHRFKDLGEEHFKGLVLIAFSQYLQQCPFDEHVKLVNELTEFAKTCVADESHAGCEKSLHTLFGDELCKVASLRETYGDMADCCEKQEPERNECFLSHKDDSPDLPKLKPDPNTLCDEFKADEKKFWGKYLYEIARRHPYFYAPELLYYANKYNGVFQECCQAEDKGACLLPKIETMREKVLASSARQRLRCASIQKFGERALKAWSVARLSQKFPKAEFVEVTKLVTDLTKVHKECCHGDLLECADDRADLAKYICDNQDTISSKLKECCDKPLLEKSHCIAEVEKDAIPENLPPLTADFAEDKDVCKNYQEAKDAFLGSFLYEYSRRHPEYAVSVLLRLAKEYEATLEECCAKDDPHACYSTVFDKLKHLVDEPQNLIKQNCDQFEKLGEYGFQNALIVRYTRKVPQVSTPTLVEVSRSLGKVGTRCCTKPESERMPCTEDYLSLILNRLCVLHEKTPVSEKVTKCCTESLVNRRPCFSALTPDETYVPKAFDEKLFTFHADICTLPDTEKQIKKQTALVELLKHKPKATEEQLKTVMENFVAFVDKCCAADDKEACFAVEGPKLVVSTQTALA

Consider “RAGE-His construct (extracellular region of human RAGE, amino acid residues 23 through 340, with C-terminal six-histidine tag), immobilized on agarose (from UniProt Q15109 23-340) (receptor)”, for which the binding capacity (mg AGE-BSA/ml RAGE gel) in experiment [1] came out at 0.82; in experiment [2] it was 0.94; in experiment [4], 0.57; in experiment [5] it was 0.92; in [7], 0.92; in experiment [8], 0.94. Also, the values for the binding capacity (mg AGE-BSA/ml RAGE gel) in experiment [9] and in [10] were 0.6 and 0.79, respectively. The same substance gave a decrease of binding capacity against the initial binding capacity in [3] of 16%. This substance displayed a decrease of binding capacity against the initial value in experiment [6] of 10%.
